Data on one molecule can be found in patent US12404345B2, “Humanized antibodies against iRHOM2” (SCIRHOM GMBH, priority 2021, dated 2025).

This experiment has as its target T1, human iRhom2 (Homo sapiens, UniProt Q6PJF5).
T1 construct: MEF-DKO-hiR2-FL-WT-T7 cells stably expressing human iRhom2 full length wild type; expressed in transfected cells; host or cells: immortalized iRhom1/2-/- double knockout mouse embryonic fibroblasts, pMSCV retroviral infection
T1 sequence (Q6PJF5 1-856): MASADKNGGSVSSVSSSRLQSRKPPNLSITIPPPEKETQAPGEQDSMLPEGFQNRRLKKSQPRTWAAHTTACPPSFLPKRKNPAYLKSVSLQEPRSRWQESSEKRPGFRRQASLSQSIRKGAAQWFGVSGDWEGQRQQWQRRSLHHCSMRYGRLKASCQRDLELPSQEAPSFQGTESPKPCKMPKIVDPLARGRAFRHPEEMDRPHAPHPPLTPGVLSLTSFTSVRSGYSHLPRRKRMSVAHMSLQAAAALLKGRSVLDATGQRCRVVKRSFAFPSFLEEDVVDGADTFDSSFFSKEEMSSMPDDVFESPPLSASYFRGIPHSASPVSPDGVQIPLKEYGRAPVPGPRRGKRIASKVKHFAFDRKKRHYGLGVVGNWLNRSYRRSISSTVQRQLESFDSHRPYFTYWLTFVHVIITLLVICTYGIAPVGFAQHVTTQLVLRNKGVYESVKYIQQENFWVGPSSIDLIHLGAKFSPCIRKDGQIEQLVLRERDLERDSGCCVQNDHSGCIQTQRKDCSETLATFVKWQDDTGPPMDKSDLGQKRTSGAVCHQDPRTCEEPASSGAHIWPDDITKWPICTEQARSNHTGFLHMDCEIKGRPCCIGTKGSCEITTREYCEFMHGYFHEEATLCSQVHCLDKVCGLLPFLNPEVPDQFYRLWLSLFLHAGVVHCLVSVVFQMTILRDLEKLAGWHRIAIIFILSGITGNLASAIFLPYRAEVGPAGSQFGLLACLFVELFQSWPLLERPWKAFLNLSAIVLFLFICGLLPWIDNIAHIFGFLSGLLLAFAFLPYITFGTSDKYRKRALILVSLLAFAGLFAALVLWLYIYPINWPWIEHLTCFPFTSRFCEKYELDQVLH
The experiment can be described thus: FACS binding to MEF-DKO-hiR2-FL-WT-T7 cells. As to conditions: antibody at 3 μg/ml. An excerpt: Next, immortalized iRhom1/2−/− DKO MEFs were reconstituted with a tagged form of human iRhom2 to test target recognition of humanized antibodies of the invention. Additionally, iRhom1/2−/− DKO MEFs stably expressing a tagged form of mouse iRhom2 were generated in order to determine cross-reactivity of the humanized antibodies 16-B-03, 16-B-05, 16-B-07, 23-B-04, 42-B-02 and 42-B-04 of the invention with the mouse orthologue of iRhom2.
In brief, on day 1, Phoenix-ECO cells (American Type Culture Collection, USA) were seeded on 6-well tissue culture plates (Greiner, Germany) in standard growth medium at 8×10^5 cells per well and kept overnight at 37° C., 5% CO2. On day 2, the medium was replaced by fresh medium supplemented with chloroquine (Sigma-Aldrich, USA) at a final concentration of 25 μM. Applying the calcium phosphate method, cells were transfected with 2 μg/ml of pMSCV (Clontech, USA) empty vector, pMSCV-hiR2-FL-WT-T7 encoding human iRhom2 full length wild type C-terminally tagged with 3 consecutive copies of the T7 epitope (MASMTGGQQMG) or pMSCV-miR2-FL-WT-T7 encoding mouse iRhom2 full length wild type C-terminally tagged with 3 consecutive copies of the T7 epitope, and were kept at 37° C., 5% CO2. […]

B1: 16-B-03: humanized antibody binding human iRhom2; HCVD SEQ ID NO 1, LCVD SEQ ID NO 5 (antibody, V domains shown)
VH: QVTLRESGPALVKPTQTLTLTCTFSGFSLSTFALGVGWIRQPPGKALEWLAHIWWDDDKYYNPALKSRLTISKDTSKNQVVLTITNMDPVDTATYYCARITTYYYGMDYWGQGTLVTVSS
VL: EIVMTQSPDFQSVTPKEKVTITCRASQSIGNHLHWYQQKPDASPKLLIKYASQSISGVPSRFSGSGSGTDFTLTINSLEAEDAATYFCQQSYQWPLTFGQGTKLEIK
modifications: antibody sequences
Turning to B1, the “binding to the human iRhom2 variant on MEF-DKO-hiR2-FL-WT-T7 cells” value is on record as “strong binding”.
